Earlier results, collected in publication PMC8300624.
Where two headings read alike, the source gives them in different places.

Key:
ASK1 TBD (Homo sapiens) [1] = biological target: ASK1 TBD (Homo sapiens) (UniProt Q99683)
ASK1 TBD (Homo sapiens) [2] = biological target: ASK1 TBD (Homo sapiens) (UniProt Q99683); remark: listed apart in the source

ASK1 TBD (Homo sapiens), sequence (Q99683 88-302): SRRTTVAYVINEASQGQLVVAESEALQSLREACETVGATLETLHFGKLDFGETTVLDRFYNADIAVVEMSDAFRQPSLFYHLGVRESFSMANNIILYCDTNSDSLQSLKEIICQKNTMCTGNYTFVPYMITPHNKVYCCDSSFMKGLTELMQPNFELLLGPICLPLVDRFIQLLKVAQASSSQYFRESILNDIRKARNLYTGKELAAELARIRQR
Thioredoxin 1, sequence (P10599 2-105): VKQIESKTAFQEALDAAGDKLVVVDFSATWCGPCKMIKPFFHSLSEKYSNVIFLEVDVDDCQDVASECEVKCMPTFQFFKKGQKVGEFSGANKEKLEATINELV

## Thioredoxin 1 (from UniProt P10599)
ASK1 TBD (Homo sapiens) [1]
  Kd: 4 µM
ASK1 TBD (Homo sapiens) [2]
  Kd: 0.3 µM
